Measured values published in patent US20190070251A1.

Assays:
[1] = target: GPR54 G-Protein coupled receptor (cloned human GPR54) (human) (UniProt Q969F8); test: cell-based or functional assay
[2] = target: human µ opioid receptor (human), P35372; test: radioligand competition with [3H]naloxone (5 nM), membranes of CHO-K1 cells with recombinant human µ opioid receptor; Ki by Cheng-Prusoff; sample diluted on the day of the assay (unreleased)
[3] = target: human µ opioid receptor (human), P35372; test: radioligand competition with [3H]naloxone (5 nM), membranes of CHO-K1 cells with recombinant human µ opioid receptor; Ki by Cheng-Prusoff; sample pre-incubated 20 h at 37 C, pH 7.5 (partly released biphalin)
[4] = target: human µ opioid receptor (human), P35372; test: radioligand competition with [3H]naloxone (5 nM), membranes of CHO-K1 cells with recombinant human µ opioid receptor; Ki by Cheng-Prusoff; sample pre-incubated 72 h at 37 C, pH 7.5 (partly released biphalin)
[5] = target: human µ opioid receptor (human), P35372; test: radioligand competition with [3H]naloxone (5 nM), membranes of CHO-K1 cells with recombinant human µ opioid receptor; Ki by Cheng-Prusoff
[6] = target: human µ opioid receptor (human), P35372; test: as above; remark: listed apart in the source
[7] = target: human µ opioid receptor (human), P35372; test: radioligand competition with [3H]naloxone (5 nM), membranes of CHO-K1 cells with recombinant human µ opioid receptor; Ki by Cheng-Prusoff; sample pre-incubated 72 h at 37 C, pH 7.5

Sequence of human µ opioid receptor (human), P35372 (P35372 whole entry): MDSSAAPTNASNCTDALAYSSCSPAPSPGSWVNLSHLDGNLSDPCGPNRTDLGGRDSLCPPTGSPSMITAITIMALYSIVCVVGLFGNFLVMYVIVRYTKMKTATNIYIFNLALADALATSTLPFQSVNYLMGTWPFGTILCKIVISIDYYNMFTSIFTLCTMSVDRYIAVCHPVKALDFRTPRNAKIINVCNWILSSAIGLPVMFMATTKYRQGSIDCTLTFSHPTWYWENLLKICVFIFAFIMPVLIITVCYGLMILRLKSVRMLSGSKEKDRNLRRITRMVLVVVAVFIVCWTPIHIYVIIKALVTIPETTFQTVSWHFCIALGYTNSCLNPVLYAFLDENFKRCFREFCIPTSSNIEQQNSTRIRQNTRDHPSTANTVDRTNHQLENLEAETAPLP

| Binder | EC50 (nM) of agonist activation at GPR54 (FLIPR calcium flux) [1] [nM] | Fold change compared to metastin [1] [fold] | Ki [2] [µM] | other results |
| --- | --- | --- | --- | --- |
| YAGF (modifications not checked) [Di-C2-PEG2-FMOC-NHS-20K-biphalin] |  |  | 0.0217 | Ki [3]: 0.0101 µM |
| YAGF (modifications not checked) [Di-CAC-PEG2-FMOC-NHS-20K-biphalin] |  |  | 1.12 | Ki [4]: 0.0137 µM |
| YAGF (modifications not checked) [Biphalin] |  |  |  | Ki [5]: 0.0034 µM; Ki [6]: 0.0047 µM; Ki [7]: 0.0031 µM |

Continued, in another order:

| EC50 (nM) of agonist activation at GPR54 (FLIPR calcium flux) [1] [nM] | Fold change compared to metastin [1] [fold] | Ki [2] [µM] | Binder | other results |
| --- | --- | --- | --- | --- |
| 190 | 16 |  | Kisspeptin-54 (C-terminal amide (-NH2)) peptide: GTSLSPPPESSGSPQQPGLSAPHSRQIPAPQGAVLVQREKDLPNYNWNSFGLRF |  |
| 11 | 1 |  | LPNYNWNSFGLRF (C-terminal amide (-NH2)) [Kisspeptin-13] |  |
